Measurements as given in patent US20210054016.

Columns and labels:
[1] = biological target: Vaccinia capping enzyme (VCE) (Vaccinia virus) (UniProt P04298+P04318); conditions: pseudouridine in place of U; 5' triphosphate; 37 C, 100 nM enzyme; larger than U counterpart
[2] = tested on: T1, H3C2 RNA capping enzyme (Faustovirus D5b) (Faustovirus D5b); conditions: pseudouridine in place of U; 5' triphosphate; 37 C, 100 nM enzyme; larger than U counterpart
T1 sequence: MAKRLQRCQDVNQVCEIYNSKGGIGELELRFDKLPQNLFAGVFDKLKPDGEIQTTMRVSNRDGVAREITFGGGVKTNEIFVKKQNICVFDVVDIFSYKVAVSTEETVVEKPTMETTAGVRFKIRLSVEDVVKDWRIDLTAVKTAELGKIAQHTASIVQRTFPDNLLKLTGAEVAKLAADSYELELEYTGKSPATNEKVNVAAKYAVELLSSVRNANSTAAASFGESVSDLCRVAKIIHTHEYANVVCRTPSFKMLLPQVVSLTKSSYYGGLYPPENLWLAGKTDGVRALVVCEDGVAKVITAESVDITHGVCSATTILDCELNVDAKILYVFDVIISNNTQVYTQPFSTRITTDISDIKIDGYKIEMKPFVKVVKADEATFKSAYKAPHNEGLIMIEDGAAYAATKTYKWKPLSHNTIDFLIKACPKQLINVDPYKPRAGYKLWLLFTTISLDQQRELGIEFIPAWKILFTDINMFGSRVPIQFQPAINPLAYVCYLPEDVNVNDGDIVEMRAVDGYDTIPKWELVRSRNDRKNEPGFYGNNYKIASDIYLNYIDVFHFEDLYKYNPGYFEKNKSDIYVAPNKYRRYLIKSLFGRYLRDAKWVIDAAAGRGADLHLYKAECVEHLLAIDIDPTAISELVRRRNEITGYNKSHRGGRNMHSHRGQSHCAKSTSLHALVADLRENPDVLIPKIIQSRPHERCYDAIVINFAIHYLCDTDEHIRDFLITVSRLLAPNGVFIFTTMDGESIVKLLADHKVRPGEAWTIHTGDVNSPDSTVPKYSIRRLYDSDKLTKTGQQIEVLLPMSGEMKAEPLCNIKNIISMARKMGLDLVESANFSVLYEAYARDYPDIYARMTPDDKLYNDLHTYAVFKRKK

Substance cluc/A120 transcript with pseudouridine has an activity [1] of 68.4 % capped and an activity [2] of 100 % capped.
